From paper PMC7846742 (2021)

Target: AviTag-His6-OAZ-GSY-SPM-Ctag (wt, with C175A) (human | Neisseria meningitidis …, UniProt Q9JYV5 414-657, biotin on the AviTag)
Assay: SPR

Binder	koff [s⁻¹]	Kd [nM]
His6-ODC-Ctag (human Ornithine Decarboxylase) (enzyme) NNFGNEEFDCHFLDEGFTAKDILDQKINEVSSSDDKDAFYVADLGDILKKHLRWLKALPRVTPFYAVKCNDSKAIVKTLAATGTGFDCASKTEIQLVQSLGVPPERIIYANPCKQVSQIKYAANNGVQMMTFDSEVELMKVARAHPKAKLVLRIATDDSKAVCRLSVKFGATLRTSRLLLERAKELNIDVVGVSFHVGSGCTDPETFVQAISDARCVFDMGAEVGFSMYLLDIGGGFPGSEDVKLKFEEITGVINPALDKYFPSDSGVRIIAEPGRYYVASAFTLAVNIIAKKIVLKEQTGSDDEDESSEQTFMYYVNDGVYGSFNCILYDHAHVKPLLQKRPKPDEKYYSSSIWGPTCDGLDRIVERCDLPEMHVGDWMLFENMGAYTVAAASTFNGFQRPTIYYVMSGPAWQLMQQFQ	0.0028	
ODC ΔN 4KR (enzyme) DCHFLDEGFTAKDILDQKINEVSSSDDKDAFYVADLGDILKKHLRWLKALPRVTPFYAVKCNDSRAIVRTLAATGTGFDCASRTEIQLVQSLGVPPERIIYANPCKQVSQIRYAANNGVQMMTFDSEVELMKVARAHPKAKLVLRIATDDSKAVCRLSVKFGATLRTSRLLLERAKELNIDVVGVSFHVGSGCTDPETFVQAISDARCVFDMGAEVGFSMYLLDIGGGFPGSEDVKLKFEEITGVINPALDKYFPSDSGVRIIAEPGRYYVASAFTLAVNIIAKKIVLKEQTGSDDEDESSEQTFMYYVNDGVYGSFNCILYDHAHVKPLLQKRPKPDEKYYSSSIWGPTCDGLDRIVERCDLPEMHVGDWMLFENMGAYTVAAASTFNGFQRPTIYYVMSGPAWQLMQQFQNPDFPPEVEEQDASTLPVSCAWESGMKRHRAACASASIN	0.0024	22
